T1: ALK4-Fc:ActRIIB-Fc heterodimer (human, UniProt P36896 24-126; Q13705 20-134)
T1 construct: also called ALK4-Fc:ActRIIB-Fc heterodimeric complex; ALK4:ActRIIB heterodimer; not shown: linker and engineered Fc
T1 sequence 1: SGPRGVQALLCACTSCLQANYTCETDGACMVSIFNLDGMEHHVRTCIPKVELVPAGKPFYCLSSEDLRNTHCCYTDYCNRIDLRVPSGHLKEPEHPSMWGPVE
T1 sequence 2: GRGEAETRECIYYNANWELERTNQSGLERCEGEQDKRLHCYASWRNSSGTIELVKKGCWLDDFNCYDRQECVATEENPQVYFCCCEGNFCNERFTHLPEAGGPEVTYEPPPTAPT

B1: BMP6 (ligand, UniProt P22004 382-513, looked up)
chain: QQSRNRSTQSQDVARVSSASDYNSSELKTACRKHELYVSFQDLGWQDWIIAPKGYAANYCDGECSFPLNAHMNATNHAIVQTLVHLMNPEYVPKPCCAPTKLNAISVLYFDDNSNVILKKYRNMVVRACGCH
B2: BMP9 (ligand, UniProt Q9UK05 320-429, looked up)
chain: SAGAGSHCQKTSLRVNFEDIGWDSWIIAPKEYEAYECKGGCFFPLADDVTPTKHAIVQTLVHLKFPTKVGKACCVPTKLSPISVLYKDDMGVPTLKYHYEGMSVAECGCR
notes: also called GDF2
B3: activin B (ligand, UniProt P09529 293-407, looked up)
chain: GLECDGRTNLCCRQQFFIDFRLIGWNDWIIAPTGYYGNYCEGSCPAYLAGVPGSASSFHTAVVNQYRMRGLNPGTVNSCCIPTKLSTMSMLYFDDEYNIVKRDVPNMIVEECGCA
B4: BMP10 (ligand, UniProt O95393 317-424, looked up)
chain: NAKGNYCKRTPLYIDFKEIGWDSWIIAPPGYEAYECRGVCNYPLAEHLTPTKHAIIQALVHLKNSQKASKACCVPTKLEPISILYLDKGVVTYKFKYEGMAVSECGCR
B5: GDF11 (ligand, UniProt O95390 299-407, looked up)
chain: NLGLDCDEHSSESRCCRYPLTVDFEAFGWDWIIAPKRYKANYCSGQCEYMFMQKYPHTHLVQQANPRGSAGPCCTPTKMSPINMLYFNDKQQIIYGKIPGMVVDRCGCS
notes: also called BMP11
B6: GDF3 (ligand, UniProt Q9NR23 251-364, looked up)
chain: AAIPVPKLSCKNLCHRHQLFINFRDLGWHKWIIAPKGFMANYCHGECPFSLTISLNSSNYAFMQALMHAVDPEIPQAVCIPTKLSPISMLYQDNNDNVILRHYEDMVVDECGCG
B7: ActRIIB-Fc homodimer (Fc fusion, UniProt Q13705 20-134, looked up)
chain: T1 sequence 2
notes: also called ActRIIB-Fc:ActRIIB-Fc homodimer; ActRIIB homodimer; not shown: linker and Fc
B8: activin A (ligand, UniProt P08476 311-426, looked up)
chain: GLECDGKVNICCKKQFFVSFKDIGWNDWIIAPSGYHANYCEGECPSHIAGTSGSSLSFHSTVINHYRMRGHSPFANLKSCCVPTKLRPMSMLYYDDGQNIIKKDIQNMIVEECGCS
notes: also called ActA

Holding throughout (experiment): SPR (Biacore), Fc protein captured by anti-Fc antibody, ligand injected
Background: In SPR one partner is held on a chip, and binding of the other changes the refractive index at the surface.

Assay [1] has as its target T1, ALK4-Fc:ActRIIB-Fc heterodimer. The method, then:
(§1) A Biacore™-based binding assay was used to compare ligand binding selectivity of the ALK4-Fc:ActRIIB-Fc heterodimeric complex described above with that of ActRIIB-Fc and ALK4-Fc homodimer complexes. The ALK4-Fc:ActRIIB-Fc heterodimer, ActRIIB-Fc homodimer, and ALK4-Fc homodimer were independently captured onto the system using an anti-Fc antibody. Ligands were injected and allowed to flow over the captured receptor protein. Results are summarized in the table below, in which ligand off-rates (kd) most indicative of effective ligand traps are denoted in bold font.

The assay “ActRIIB-Fc homodimer” deals with B7. Here is the method: as §1
The assay “activin A” has as its target B8. Here is the method:
as §1

The target in the assay “activin B” is B3. Here is the method: as §1
The target in the assay “BMP6” is B1. The method, then:
as §1

Usually Kd stands for a measure of binding affinity in units of concentration. A higher Kd goes with lower affinity. As a reminder, the koff is the rate constant with which the complex falls apart. The low end stands for slow dissociation, the high end for fast dissociation. As a reminder, the kon is a measure of how fast the partners come together. A lower kon goes with slow association.

For B1, in assay [1], the dissociation constant Kd came out at 2.7 nM, the koff is 0.0055 s⁻¹ and the kon is 2e+06 M⁻¹ s⁻¹.
Consider B2, for which, in the assay with ActRIIB-Fc homodimer, the Kd worked out at 0.077 nM, the koff was determined as 0.0011 s⁻¹ and the on-rate constant (kon) was found to be 1.4e+07 M⁻¹ s⁻¹. Besides, in assay [1], the Kd turned out to be 3.4 nM.
In assay [1], B3 yielded a Kd of 0.006 nM, an off-rate constant (koff) of 4e-05 s⁻¹ and an on-rate constant (kon) of 7.1e+06 M⁻¹ s⁻¹.
In the assay with ActRIIB-Fc homodimer, B4 registered a Kd of 0.011 nM, a koff of 0.00026 s⁻¹ and a kon of 2.3e+07 M⁻¹ s⁻¹. In assay [1], this molecule showed a Kd of 0.074 nM, a koff of 0.0041 s⁻¹ and an on-rate (kon) of 5.6e+07 M⁻¹ s⁻¹.
As to B5, in the assay with ActRIIB-Fc homodimer, the Kd worked out at 0.002 nM, the koff was 0.00011 s⁻¹ and the kon was 5e+07 M⁻¹ s⁻¹. In assay [1], this molecule displayed a Kd of 0.003 nM, a koff of 0.00011 s⁻¹ and a kon of 3.8e+07 M⁻¹ s⁻¹.
In the assay with ActRIIB-Fc homodimer, B6 came in with a Kd of 1.5 nM, a koff of 0.0022 s⁻¹ and an on-rate constant (kon) of 1.4e+06 M⁻¹ s⁻¹. Further, in assay [1], the affinity, expressed as Kd, was 4.9 nM; the koff amounted to 0.017 s⁻¹; the kon came out at 3.4e+06 M⁻¹ s⁻¹.
Consider B7, for which, in the assay with activin A, the Kd is 0.019 nM, the off-rate constant (koff) amounted to 0.00023 s⁻¹ and the kon was found to be 1.2e+07 M⁻¹ s⁻¹. Moreover, in the assay with activin B, binding was put at a Kd of 0.02 nM, the koff is 0.0001 s⁻¹ and the association rate constant (kon) came out at 5.1e+06 M⁻¹ s⁻¹. In the assay with BMP6, this molecule gave a Kd of 0.19 nM, a koff of 0.0068 s⁻¹ and an association rate constant (kon) of 3.2e+07 M⁻¹ s⁻¹.
For B8, in assay [1], binding was put at a Kd of 0.012 nM, the dissociation rate constant (koff) turned out to be 0.00015 s⁻¹ and the association rate constant (kon) was 1.3e+07 M⁻¹ s⁻¹.

The values above are taken from patent publication US20200397865A1 (ACCELERON PHARMA, published 2020).
